Kd data for 1 substance are collected here from paper PMC11965310.

Usually pKd stands for −log10 of the Kd, conventionally taken in molar units.

For this assay, the target named is Recombinant Human LRP1 cluster III protein, Fc Tag (human) (UniProt Q07954). The assay can be described thus: SPR; LRP1 cluster III-Fc captured on a Protein G chip (1800 RU); tau1N4R as analyte 0.012-1 μM, single-cycle kinetics; HBS-N with 0.005% P20 and 1 mM CaCl2; 1:1 Langmuir model.

pKd: −log10 of the molar value.

Sequence of Recombinant Human LRP1 cluster III protein, Fc Tag (human) (Q07954 2522-2940): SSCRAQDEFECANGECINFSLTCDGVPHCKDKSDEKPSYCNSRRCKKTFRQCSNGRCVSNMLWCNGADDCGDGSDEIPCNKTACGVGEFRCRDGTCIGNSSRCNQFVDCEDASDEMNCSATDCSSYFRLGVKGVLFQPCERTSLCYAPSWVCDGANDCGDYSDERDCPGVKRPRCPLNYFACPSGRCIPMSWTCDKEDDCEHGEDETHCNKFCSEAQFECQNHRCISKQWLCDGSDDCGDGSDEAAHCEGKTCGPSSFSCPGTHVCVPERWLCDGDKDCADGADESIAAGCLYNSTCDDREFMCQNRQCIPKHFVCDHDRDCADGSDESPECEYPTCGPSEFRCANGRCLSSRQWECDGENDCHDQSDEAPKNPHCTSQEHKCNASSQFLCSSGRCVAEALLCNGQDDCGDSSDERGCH

Regarding “tau1N4R (from UniProt P10636-6 1-383) (natural protein)”, the pKd is 7.04.
